Target: T1, CALEOSIN 2 (CLO2), Cub fusion (Arabidopsis thaliana, UniProt Q9FLN9 1-243)
T1 construct: CALEOSIN 2 of Arabidopsis thaliana; the coding region was amplified and inserted into pMetYCgate; Bait; source: yeast split-ubiquitin fusion (pMetYCgate, S. cerevisiae THY.AP4)
Assay: two-hybrid; mating-based split-ubiquitin system in yeast; Cub fusions as bait, NubG fusions as prey; quantitative β-galactosidase assay (Beta-Glo), activity normalized to a reference pair
Details: partners not purified

T1 sequence (Q9FLN9 whole entry, the tested form may be a part): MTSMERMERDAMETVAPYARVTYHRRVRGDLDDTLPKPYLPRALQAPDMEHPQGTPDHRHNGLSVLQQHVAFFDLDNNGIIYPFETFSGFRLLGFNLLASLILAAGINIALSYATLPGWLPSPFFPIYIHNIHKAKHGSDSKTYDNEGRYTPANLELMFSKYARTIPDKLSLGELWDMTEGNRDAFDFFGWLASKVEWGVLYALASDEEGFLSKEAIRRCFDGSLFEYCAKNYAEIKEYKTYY

- fold weaker β-galactosidase activity than with CLO1, CLO3 and OLE1: 2 fold
B1: AUTOPHAGY-RELATED PROTEIN 8b (ATG8b), NubG fusion (natural protein, Arabidopsis thaliana, UniProt Q9XEB5 1-117, looked up)
chain: MEKNSFKLSNPLEMRMAESTRIRAKYPERVPVIVEKAGQSDVPDIDKKKYLVPADLTIGQFVYVVRKRIKLGAEKAIFVFVKNTLPPTAALMSAIYEEHKDEDGFLYMTYSGENTFG
notes: AUTOPHAGY-RELATED PROTEIN 8b of Arabidopsis thaliana; the coding region was amplified and inserted into pNXgate32-3HA; Prey; source: yeast split-ubiquitin fusion (pNXgate32-3HA, S. cerevisiae THY.AP5)

Source: paper PMC10663143, “CALEOSIN 1 interaction with AUTOPHAGY-RELATED PROTEIN 8 facilitates lipid droplet microautophagy in seedlings” (Plant Physiology, 2023)
